Assay results as given in PMC13168374, “Reversible DNA condensation drives natural transformation”.

Key:
[1] = molecular target: T1, ComEA A108Y A108Y (Geobacillus stearothermophilus) (UniProt A0A0K9HI54); test: optical tweezers overstretching; conditions: EC50 of overstretch force increase; Ymax 12.7 pN; 23 C; FP: 20 mM Tris-HCl pH 7.5, 200 mM KCl, 80 nM DNA, ~20 C (spin at 20 C; read temperature not stated); optical tweezers 23 +/- 1 C, buffer not given in material
T1 sequence: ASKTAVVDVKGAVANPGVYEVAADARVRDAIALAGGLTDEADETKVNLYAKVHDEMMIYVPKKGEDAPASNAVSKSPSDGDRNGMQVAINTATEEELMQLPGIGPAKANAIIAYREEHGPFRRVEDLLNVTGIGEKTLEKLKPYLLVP

[2] = molecular target: ComEA LL ins19aa;after;143 (Geobacillus stearothermophilus) (UniProt A0A0K9HI54); test: optical tweezers overstretching; conditions: FP: 20 mM Tris-HCl pH 7.5, 200 mM KCl, 80 nM DNA, ~20 C (spin at 20 C; read temperature not stated); optical tweezers 23 +/- 1 C, buffer not given in material
[3] = molecular target: T2, ComEA deltaL internal_change (Geobacillus stearothermophilus) (UniProt A0A0K9HI54); test: optical tweezers overstretching; conditions: FP: 20 mM Tris-HCl pH 7.5, 200 mM KCl, 80 nM DNA, ~20 C (spin at 20 C; read temperature not stated); optical tweezers 23 +/- 1 C, buffer not given in material
T2 sequence: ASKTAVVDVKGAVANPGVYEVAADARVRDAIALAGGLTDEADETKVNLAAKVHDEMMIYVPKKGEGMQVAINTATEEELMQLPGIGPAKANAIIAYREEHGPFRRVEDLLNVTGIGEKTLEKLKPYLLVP

[4] = molecular target: T3, ComEA (soluble truncation) (Geobacillus stearothermophilus, UniProt A0A0K9HI54 60-207); test: optical tweezers overstretching; conditions: EC50 of overstretch force increase; Ymax 28.6 pN; 23 C; FP: 20 mM Tris-HCl pH 7.5, 200 mM KCl, 80 nM DNA, ~20 C (spin at 20 C; read temperature not stated); optical tweezers 23 +/- 1 C, buffer not given in material
T3 sequence: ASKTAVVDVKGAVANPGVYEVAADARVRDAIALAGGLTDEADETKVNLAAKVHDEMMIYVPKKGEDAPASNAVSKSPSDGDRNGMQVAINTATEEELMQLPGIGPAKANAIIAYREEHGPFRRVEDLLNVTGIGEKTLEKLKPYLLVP

[5] = molecular target: ComEA from Geobacillus stearothermophilus, soluble truncation lacking the N-terminal sequence (amino acids 60-207) (Geobacillus stearothermophilus)
[6] = molecular target: ComEA from Geobacillus stearothermophilus, soluble truncation lacking the N-terminal sequence (amino acids 60-207) (Geobacillus stearothermophilus); remark: listed apart in the source
[7] = molecular target: ComEA from Geobacillus stearothermophilus, soluble truncation lacking the N-terminal sequence (amino acids 60-207) (Geobacillus stearothermophilus); remark: listed apart in the source
ComEA A108Y = molecular target: T4, ComEA A108Y (Geobacillus stearothermophilus, UniProt A0A0K9HI54 60-207, A108Y); test: fluorescence polarization; Hill coefficient 0.96 +/- 0.16; FP: 20 mM Tris-HCl pH 7.5, 200 mM KCl, 80 nM DNA, ~20 C (spin at 20 C; read temperature not stated); optical tweezers 23 +/- 1 C, buffer not given in material; conditions: protein: recombinant; label: 3'-fluorescein (36-FAM) on strand 1; blunt
T4 sequence: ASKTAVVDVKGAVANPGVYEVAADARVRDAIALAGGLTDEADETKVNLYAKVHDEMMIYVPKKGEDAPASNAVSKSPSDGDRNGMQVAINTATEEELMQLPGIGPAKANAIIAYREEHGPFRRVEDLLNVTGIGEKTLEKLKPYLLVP

[8] = molecular target: T3, ComEA (soluble truncation); test: fluorescence polarization; Hill coefficient 1.56 +/- 0.28; FP: 20 mM Tris-HCl pH 7.5, 200 mM KCl, 80 nM DNA, ~20 C (spin at 20 C; read temperature not stated); optical tweezers 23 +/- 1 C, buffer not given in material; conditions: protein: recombinant; label: 3'-fluorescein (36-FAM) on strand 1; blunt
ComEA deltaL = molecular target: T5, ComEA deltaL (Geobacillus stearothermophilus, UniProt A0A0K9HI54 60-124+143-207, internal_change); test: fluorescence polarization; Kd within error of ComEA; Hill >1; value in Fig. 5c only; FP: 20 mM Tris-HCl pH 7.5, 200 mM KCl, 80 nM DNA, ~20 C (spin at 20 C; read temperature not stated); optical tweezers 23 +/- 1 C, buffer not given in material; conditions: protein: recombinant; label: 3'-fluorescein (36-FAM) on strand 1; blunt
T5 sequence: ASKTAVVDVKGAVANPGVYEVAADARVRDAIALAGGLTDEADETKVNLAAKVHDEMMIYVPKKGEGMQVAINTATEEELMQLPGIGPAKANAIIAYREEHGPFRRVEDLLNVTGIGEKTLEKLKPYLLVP

6 kbp dsDNA (optical tweezers)
K half [1]: 210 nM
K half [2]: 330 nM
K half [3]: 380 nM
K half [4]: 290 nM

ComEA from Geobacillus stearothermophilus, soluble truncation lacking the N-terminal sequence (amino acids 60-207) (domain or fragment)
condensation force produced and held for at least 1 s during the 10 s rest phase, optical tweezers, 20 nM-4 µM ComEA (value at 200 nM; buffer alone 0.03 pN) [5]: 0.11 pN
condensation force from an eWLC fit of the DNA released per cycle against the extension held in the rest phase, optical tweezers [6]: 0.07 pN
fold condensation of 5.495 kbp dsDNA (bounding circle radius, negative stain electron microscopy), 200 nM-4 µM ComEA, peak value [7]: 3.5 fold

B1: 30 bp DNA duplex (dsDNA)
DNA 1: GCACTGTGAATATCACTACAGCAACCTTGA
DNA 2: TCAAGGTTGCTGTAGTGATATTCACAGTGC
Kd (ComEA A108Y): 1910 ± 520 nM
Kd [8]: 660 ± 80 nM
binding result (ComEA deltaL): binds
